Where “and” joins values, the source holds several entries; their conditions need not be identical. Equal entries are not always repeated.
T1: recombinant soluble human GPVI (GPVI-Fc) (human, UniProt Q9HCN6 21-267)
T1 construct: extracellular domain; also called soluble recombinant GPVI; purified GPVI; not shown: human Ig Fc domain
T1 sequence (looked up): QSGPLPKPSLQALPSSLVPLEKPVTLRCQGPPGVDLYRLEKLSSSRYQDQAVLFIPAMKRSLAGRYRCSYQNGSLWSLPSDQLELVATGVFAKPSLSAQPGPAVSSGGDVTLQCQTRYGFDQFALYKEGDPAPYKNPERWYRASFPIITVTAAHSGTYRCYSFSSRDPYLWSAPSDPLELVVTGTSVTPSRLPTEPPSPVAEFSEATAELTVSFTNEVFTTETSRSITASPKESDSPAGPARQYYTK

B1: 9O12.2 Fab fragment prepared by papain digestion of the parental IgG (Fab, V domains shown)
VH: QVQLQESGAELVKPGASVKMSCKASGYTFTSYNMHWVKQTPGQGLEWIGGIYPGNGDTSFNQKFKGKATLTADKSSRTAYMQLSSLTSEDSAVYYCARGTVVGDWYFDVWGAGTTLTVSS
VL: DVLMTQTPLSLPVSLGDQASISCRSSQSLENSNGNTYLNWYLQKPGQSPQLLIYRVSNRFSGVLDRFSGSGSGTDFTLKISRVEAEDLGVYFCLQLTHVPWTFGGGTKLEIK
notes: Papain Fab of the murine IgG1 kappa antibody; also called Fab 9O12.2; Fab 9O12
B2: 9O12.2 monoclonal anti-human GPVI antibody (murine IgG1, kappa) (antibody, V domains shown)
VH: B1 VH
VL: B1 VL
notes: The VL is therefore written as 136-247; also called 9O12.2 IgG; IgG 9O12.2
B3: second optimized humanized scFv 9O12.2 fragment, hscFv 9O12.2(2) (scFv)
scFv: QVQLQESGAEVKKPGASVKVSCKASGYSFTSYNMHWVRQAPGQRLEWMGGIYPGNGDTSFNQKFKGKATLTADKSSRTAYMGLSSLRPEDTAVYYCARGTVVGDWYFDVWGQGTLVTVSSGGGGSGGGGSGGGGSDVLMTQTPLSLPVSLGDQASISCRSSQSLENSNGNTYLNWYLQKPGQSPQLLIYRVSNRFSGVLDRFSGSGSGTDFTLTISSLQPEDFAIYYCLQLTHVPWTFGGGTKVEIKRSRVTVSSDQKLISEEDLN
notes: Murine VL FR1 and FR2 are kept; Detected through its c-myc flag
B4: murine single chain variable fragment scFv 9O12.2 (VH-(Gly4Ser)3-VL, spacer, c-myc flag) (scFv)
scFv: QVQLQESGAELVKPGASVKMSCKASGYTFTSYNMHWVKQTPGQGLEWIGGIYPGNGDTSFNQKFKGKATLTADKSSRTAYMQLSSLTSEDSAVYYCARGTVVGDWYFDVWGAGTTLTVSSGGGGSGGGGSGGGGSDVLMTQTPLSLPVSLGDQASISCRSSQSLENSNGNTYLNWYLQKPGQSPQLLIYRVSNRFSGVLDRFSGSGSGTDFTLKISRVEAEDLGVYFCLQLTHVPWTFGGGTKLEIKRSRVTVSSEQKLISEEDLN
notes: Made in the E. coli periplasm through a pelB leader; Tested as periplasmic extract or after purification on GPVI-sepharose; The monomer was isolated by size exclusion for the aggregation assay; also called mscFv 9O12.2; mscFv 9O12

Experiments:
[1] = biological target: human glycoprotein VI on human platelets (human) (UniProt Q9HCN6); test: flow cytometry, periplasmic extract on human platelets, FITC anti-c-myc
[2] = biological target: human glycoprotein VI on human platelets (human) (UniProt Q9HCN6); test: flow cytometry of human platelets with bacterial periplasmic extract, FITC-coupled anti-c-myc antibody [upper panel]
[3] = biological target: human glycoprotein VI on human platelets (human) (UniProt Q9HCN6); test: flow cytometry of washed human platelets with an irrelevant scFv, FITC-coupled anti-c-myc IgG [top panel]
[4] = biological target: T1, recombinant soluble human GPVI (GPVI-Fc); test: blocking ELISA: 4 µg GPVI-Fc on immobilized collagen with increasing antibody fragment; blocked ligand: fibrillar type I collagen; bound GPVI-Fc detected with HRP-coupled anti-Fc
Method: (§1) FIG. 9. Inhibition of GPVI binding to immobilized collagen. GPVI-Fc was incubated on immobilized collagen in the presence of increasing amounts of antibodies: scFv 9O12.2 (triangle), or pFab (square) (A): 2 μg of GP VI-Fc; (B): 4 μg of GPVI-Fc Bound GPVI-Fc was detected using an HRP coupled anti-Fc IgG.

[5] = biological target: T1, recombinant soluble human GPVI (GPVI-Fc); test: SPR (BIAcore 2000), GPVI-Fc immobilized on CM5, second series
Method: (§2) Binding of the anti-GPVI scFv to recombinant GPVI-Fc is analyzed with surface plasmon resonance using a BIAcore 2000 system (Uppsala, Sweden). Binding studies is performed with scFv 9O12, Proteolytic Fab and parental IgG.
(§3) Recombinant GPVI-Fc is immobilized (˜600 RU) onto a Carboxy-Methyl Dextran CM5 sensor chip using the amine coupling method (Wizard procedure). Antibody is then passed over the immobilized recombinant GPVI-Fc in HBS-EP buffer (0.01 M HEPES pH 7.4, 0.15 M NaCl, 0.005% polysorbate 20 (v/v)) at a flow rate of 20 μl/min at 25° C. Kinetic constants (kₐ, kd) and affinity are determined using BIAevaluation version 3.1 software, by fitting data to binding model. HBS-EP is the running buffer. 10 mM glycine-HCl pH 2.5 injected for 30 s at 20 μl/min is the regeneration buffer. All reagents and buffers used are from Biacore.

[6] = biological target: T1, recombinant soluble human GPVI (GPVI-Fc); test: SPR (BIAcore 2000), GPVI-Fc immobilized on CM5, first series
Method: as §2, §3

[7] = biological target: T1, recombinant soluble human GPVI (GPVI-Fc); test: inhibition of GPVI-Fc binding to immobilized collagen, ELISA
Method: as §1

[8] = biological target: T1, recombinant soluble human GPVI (GPVI-Fc); test: competition ELISA on GPVI-Fc coated plates; competitor: scFv 9O12.2 at a fixed concentration (60 µg/mL in the legend, 100 µg/ml in the methods), bound scFv detected with HRP-coupled anti-c-myc
[9] = biological target: T1, recombinant soluble human GPVI (GPVI-Fc); test: SPR against immobilized GPVI (procedure as in Example 1)

Row | Molecule | IC50 (read off the curve) [4] [mg/L] | Kd [5] [nM] | Kd [6] [nM] | IC50 [7] | other results
1 | irrelevant scFv (c-myc tagged negative control) |  |  |  |  | % positive platelets [1]: 0.17%; % positive platelets (FITC count) [2]: 0.03%; % positive platelets (FITC count) [3]: 0.17%
2 | B1 | ~7 | 2.3 | 4.5 | 2.1 µg/mL and 15 nM | 
3 | B2 |  | 4 | 6.5 |  | IC50 (read off the curve) [8]: ~20 mg/L
4 | B3 |  |  |  |  | Kd [9]: 3.2 nM; koff [9]: 0.000186 s⁻¹; kon [9]: 58000 M⁻¹ s⁻¹
5 | B4 | ~4 | 2.6 | 2.5 | ~1.17 µg/mL and ~42 µM | koff [5]: 0.00017 s⁻¹; kon [5]: 65000 M⁻¹ s⁻¹

From US20130189259A1 (INSERM INSTITUT NATIONAL DE LA SANTE ET DE LA RECHERCHE …, published 2013)
